Data from the supplement of paper PMC9876800.

Tested on: peptide library, one residue held at a place counted from the S/T acceptor
Test: relative phosphorylation of the sub-library (ratio to the mean residue at this position); higher = residue favoured
Conditions: human
Method in brief: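 Relative sub-library phosphorylation, a ratio to the mean residue at that position, was obtained by phosphorimaging and densitometry of spots on streptavidin membranes. Before capture, purified recombinant kinases were incubated for 90 min under kinase-specific conditions with 50 μM biotinylated degenerate peptide sub-libraries and 50 μM ATP spiked with γ-32P-ATP. Each sub-library fixed one residue at one position around a central Ser/Thr.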

Sequence of MYO3B, construct: aa1-326 (Q8WXR4 1-326, looked up): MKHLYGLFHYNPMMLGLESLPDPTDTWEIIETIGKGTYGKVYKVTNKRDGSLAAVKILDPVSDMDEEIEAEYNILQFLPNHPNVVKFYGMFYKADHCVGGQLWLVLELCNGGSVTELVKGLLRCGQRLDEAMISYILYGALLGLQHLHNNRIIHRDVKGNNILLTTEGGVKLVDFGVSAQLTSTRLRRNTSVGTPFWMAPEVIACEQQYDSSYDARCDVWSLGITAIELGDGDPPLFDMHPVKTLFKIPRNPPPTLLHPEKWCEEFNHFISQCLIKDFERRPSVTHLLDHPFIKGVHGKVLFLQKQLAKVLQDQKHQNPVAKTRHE

MYO3B, construct: aa1-326 (from UniProt Q8WXR4)
relative phosphorylation
Conditions | at +1 | at +2 | at +3 | at +4 | at -1 | at -2 | at -3 | at -4 | at -5
A fixed | 0.835 | 0.824 | 0.907 | 0.917 | 1.11 | 0.997 | 1.06 | 0.977 | 1.15
D fixed | 0.195 | 0.346 | 0.286 | 0.408 | 0.679 | 0.489 | 0.538 | 0.954 | 0.81
E fixed | 0.182 | 0.272 | 0.222 | 0.412 | 0.633 | 0.316 | 0.576 | 0.933 | 0.843
F fixed | 0.583 | 0.641 | 0.831 | 0.682 | 0.908 | 1.44 | 1.07 | 1.05 | 1.01
G fixed | 0.936 | 0.951 | 1.04 | 1.24 | 1.61 | 1.32 | 1.8 | 1.33 | 1.38
H fixed | 0.628 | 1.1 | 1.01 | 1.03 | 1.18 | 1.25 | 1.13 | 1.14 | 1.08
I fixed | 1.1 | 0.515 | 0.595 | 0.683 | 0.38 | 0.578 | 0.728 | 0.783 | 0.787
K fixed | 2.3 | 2.56 | 2.29 | 2.28 | 0.958 | 0.787 | 0.946 | 1.04 | 1.14
L fixed | 1.53 | 0.724 | 0.838 | 0.663 | 0.945 | 0.713 | 0.901 | 0.82 | 0.757
M fixed | 1.57 | 0.756 | 0.71 | 0.714 | 1.33 | 0.857 | 1.11 | 0.939 | 0.947
N fixed | 0.754 | 0.835 | 0.911 | 1.03 | 1.28 | 0.95 | 0.939 | 0.96 | 0.899
P fixed | 0.276 | 0.96 | 1.18 | 1.05 | 0.601 | 0.622 | 0.891 | 0.953 | 1.27
Q fixed | 1.08 | 0.752 | 0.736 | 0.988 | 1.04 | 0.816 | 0.823 | 0.946 | 0.856
R fixed | 2.66 | 3.56 | 3.06 | 2.38 | 1.58 | 1.72 | 1.18 | 1.13 | 1.15
V fixed | 0.809 | 0.552 | 0.671 | 0.702 | 0.495 | 0.597 | 0.582 | 0.769 | 0.879
W fixed | 0.791 | 0.737 | 0.807 | 1 | 0.856 | 1.52 | 1.28 | 1.17 | 0.993
Y fixed | 0.781 | 0.919 | 0.902 | 0.826 | 1.41 | 2.03 | 1.44 | 1.1 | 1.04
pThr fixed | 0.449 | 0.389 | 0.599 | 0.309 | 0.335 | 0.494 | 0.678 | 0.852 | 0.895
pTyr fixed | 0.308 | 0.266 | 0.551 | 0.392 | 1.24 | 0.596 | 0.873 | 0.888 | 1.1
